Assay results reported in patent US20120329717A1.

What was measured:
[1] = molecular target: N-type VGCCs controlling excitatory synaptic transmission between primary afferents and dorsal horn (rat) (UniProt Q02294); test: cell-based or functional assay
[2] = molecular target: N-type VGCCs in rat brain membranes (rat) (UniProt Q02294); test: displacement of 125I-GVIA from rat brain membranes
[3] = molecular target: N-type VGCCs controlling excitatory synaptic transmission between primary afferents and dorsal horn (rat), Q02294; test: cell-based or functional assay
[4] = molecular target: N-type VGCCs in rat brain membranes (rat), Q02294; test: displacement of 125I-GVIA from rat brain membranes
Chain of N-type VGCCs in rat brain membranes (rat), Q02294 (Q02294 whole entry): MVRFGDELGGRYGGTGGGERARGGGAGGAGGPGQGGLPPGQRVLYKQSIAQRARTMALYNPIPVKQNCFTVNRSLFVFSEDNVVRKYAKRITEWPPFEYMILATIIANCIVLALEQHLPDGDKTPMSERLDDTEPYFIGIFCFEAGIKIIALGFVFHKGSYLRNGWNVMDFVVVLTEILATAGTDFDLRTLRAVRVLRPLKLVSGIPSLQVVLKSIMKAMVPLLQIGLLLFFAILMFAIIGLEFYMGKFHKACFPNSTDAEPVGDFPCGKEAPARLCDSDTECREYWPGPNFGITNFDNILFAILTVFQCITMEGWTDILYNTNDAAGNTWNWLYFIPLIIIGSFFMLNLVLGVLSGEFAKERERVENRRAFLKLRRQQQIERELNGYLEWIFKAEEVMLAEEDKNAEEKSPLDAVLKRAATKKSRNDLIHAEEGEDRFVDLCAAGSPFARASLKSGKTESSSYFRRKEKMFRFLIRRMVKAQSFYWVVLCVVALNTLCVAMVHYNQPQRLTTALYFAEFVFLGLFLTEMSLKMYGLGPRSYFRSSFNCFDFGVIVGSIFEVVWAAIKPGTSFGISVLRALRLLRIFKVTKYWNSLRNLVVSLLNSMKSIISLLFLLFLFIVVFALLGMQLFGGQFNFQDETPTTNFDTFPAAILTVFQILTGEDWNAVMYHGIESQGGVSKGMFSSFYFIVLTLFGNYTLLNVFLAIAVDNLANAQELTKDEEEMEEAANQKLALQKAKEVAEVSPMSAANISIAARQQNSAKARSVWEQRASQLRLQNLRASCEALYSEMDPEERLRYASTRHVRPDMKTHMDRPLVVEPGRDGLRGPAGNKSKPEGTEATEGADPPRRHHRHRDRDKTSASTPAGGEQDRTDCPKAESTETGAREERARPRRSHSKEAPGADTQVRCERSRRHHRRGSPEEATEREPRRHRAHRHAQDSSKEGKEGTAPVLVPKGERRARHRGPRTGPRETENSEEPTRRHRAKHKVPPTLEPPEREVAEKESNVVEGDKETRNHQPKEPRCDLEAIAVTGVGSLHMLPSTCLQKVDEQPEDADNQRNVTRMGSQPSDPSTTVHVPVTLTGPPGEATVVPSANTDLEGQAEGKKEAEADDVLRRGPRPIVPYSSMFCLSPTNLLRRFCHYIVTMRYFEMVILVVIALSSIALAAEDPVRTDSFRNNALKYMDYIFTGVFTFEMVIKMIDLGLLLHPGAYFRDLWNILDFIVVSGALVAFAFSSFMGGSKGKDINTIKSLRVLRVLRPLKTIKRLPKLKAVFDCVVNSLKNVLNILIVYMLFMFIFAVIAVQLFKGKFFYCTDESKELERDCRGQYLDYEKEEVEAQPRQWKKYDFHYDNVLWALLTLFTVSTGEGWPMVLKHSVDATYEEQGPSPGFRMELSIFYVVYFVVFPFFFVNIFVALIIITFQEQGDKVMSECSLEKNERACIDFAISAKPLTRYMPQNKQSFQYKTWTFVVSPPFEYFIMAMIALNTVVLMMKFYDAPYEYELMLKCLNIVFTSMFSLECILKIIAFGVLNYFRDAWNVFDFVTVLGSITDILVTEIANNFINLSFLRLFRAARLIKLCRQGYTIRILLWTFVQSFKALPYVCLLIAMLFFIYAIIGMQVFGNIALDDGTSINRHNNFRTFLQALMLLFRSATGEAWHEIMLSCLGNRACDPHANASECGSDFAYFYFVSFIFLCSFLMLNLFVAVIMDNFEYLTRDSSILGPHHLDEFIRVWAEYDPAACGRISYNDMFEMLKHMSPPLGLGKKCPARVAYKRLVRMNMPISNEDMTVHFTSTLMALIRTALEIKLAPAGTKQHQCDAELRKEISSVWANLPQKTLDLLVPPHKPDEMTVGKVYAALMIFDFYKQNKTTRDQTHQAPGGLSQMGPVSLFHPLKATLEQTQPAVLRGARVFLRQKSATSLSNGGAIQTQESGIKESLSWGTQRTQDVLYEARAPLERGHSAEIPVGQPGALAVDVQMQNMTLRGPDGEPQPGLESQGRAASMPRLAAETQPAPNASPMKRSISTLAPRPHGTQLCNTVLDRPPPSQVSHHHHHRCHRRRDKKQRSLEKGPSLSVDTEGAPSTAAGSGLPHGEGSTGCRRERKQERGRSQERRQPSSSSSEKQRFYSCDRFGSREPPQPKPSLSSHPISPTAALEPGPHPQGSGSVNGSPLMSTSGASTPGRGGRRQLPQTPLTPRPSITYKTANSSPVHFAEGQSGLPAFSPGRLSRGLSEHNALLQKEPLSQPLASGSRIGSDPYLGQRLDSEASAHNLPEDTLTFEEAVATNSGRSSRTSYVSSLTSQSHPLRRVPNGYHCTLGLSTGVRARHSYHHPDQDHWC

Chain of N-type VGCCs in rat brain membranes (rat) (Q02294 whole entry): as above
Chain of N-type VGCCs controlling excitatory synaptic transmission between primary afferents and dorsal horn (rat) (Q02294 whole entry): as above
Chain of N-type VGCCs controlling excitatory synaptic transmission between primary afferents and dorsal horn (rat), Q02294 (Q02294 whole entry): as above

Molecule | EPSC amplitude recovered 10-15 min after washout, percent of control [1] [%] | affinity [2] [µM] | pIC50 [2] [M] | EPSC amplitude recovered 10-15 min after washout, percent of control [3] [%] | affinity [4] [µM] | pIC50 [4] [M]
ω-conotoxin CVIE (peptide) | 78 | 37 | 10.7 |  |  | 
CKGKGASCRRTSYDCCTGSCRSGRC (modifications not checked) [ω-conotoxin CVIF] |  |  |  | 73 | 98 | 10.6
CKSPGSSCSPTSYNCCRSCNPYTKRCY (modifications not checked) [ω-conotoxin GVIA, P01522 46-72] |  |  |  |  | 24 | 10.6
CKSKGAKCSKLMYDCCSGSCSGTVGRC (modifications not checked) [ω-conotoxin CVID, P58920 46-72] |  |  |  |  | 12 | 11
